In this test the target is HLA-A*02:01 (Homo sapiens, UniProt P04439, D140Y/D185E/D98H/E176V/E277Q/G131W/G231S/I119V/I121R/I166T/I218V/L300P/L318F/N151K/N90K/P208A/P217A/Q86G/Q94H/R138H/R169H/T345S). The experiment in a line: MHC binding assay (UV-ligand exchange, anti-β2m ELISA). The conditions noted are these: peptide exchange yield, binding to HLA-A*02:01. An excerpt: Candidate peptides for T cell based therapies according to the present invention were further tested for their MHC binding capacity (affinity). The individual peptide-MHC complexes were produced by UV-ligand exchange, where a UV-sensitive peptide is cleaved upon UV-irradiation and exchanged with the peptide of interest as analyzed. Only peptide candidates that can effectively bind and stabilize the peptide-receptive MHC molecules prevent dissociation of the MHC complexes. To determine the yield of the exchange reaction, an ELISA was performed based on the detection of the light chain (β2m) of stabilized MHC complexes. The assay was performed as generally described in Rodenko et al. (Rodenko et al., 2006).
96 well MAXISorp plates (NUNC) were coated over night with 2 μg/ml streptavidin in PBS at room temperature, washed 4× and blocked for 1 h at 37° C. in 2% BSA containing blocking buffer. Refolded HLA-A*02:01/MLA-001 monomers served as standards, covering the range of 15-500 ng/ml. Peptide-MHC monomers of the UV-exchange reaction were diluted 100-fold in blocking buffer. Samples were incubated for 1 h at 37° C., washed four times, incubated with 2 μg/ml HRP conjugated anti-β2m for 1 h at 37° C., washed again and detected with TMB solution that is stopped with […]. Absorption was measured at 450 nm. Candidate peptides that show a high exchange yield (preferably higher than 50%, most preferred higher than 75%) are generally preferred for a generation and production of antibodies or fragments thereof, and/or T cell receptors or fragments thereof, as they show sufficient avidity to the MHC molecules and prevent dissociation of the MHC complexes.
On the technique in general: An ELISA detects its analyte on a solid surface through an enzyme-linked reagent.

With “91 (VLKDGTLVI; peptide displayed by HLA-A*02) [compound 91]”, the Peptide exchange result was “++ (≥20% =++)”.

On to “67 (LLDTTDVYL; peptide displayed by HLA-A*02) [compound 67]”, for which the Peptide exchange entry was “+++ (≥50% = +++)”.

Consider “44 (LLDATHQI; peptide displayed by HLA-A*02) [compound 44]”, for which the Peptide exchange result was “++++ (≥75% = ++++)”. As for “29 (KLLDLTVRI; peptide displayed by HLA-A*02) [compound 29]”, the entry is “++++ (≥75% = ++++)”; as for “15 (VLDDTLVIF; peptide displayed by HLA-A*02) [compound 15]”, “+++ (≥50% = +++)”; as for “35 (SLRDGTEVV; peptide displayed by HLA-A*02) [compound 35]”, “+++ (≥50% = +++)”. Take “18 (ILDEAKDISF; peptide displayed by HLA-A*02) [compound 18]”: the Peptide exchange result is on record as “+++ (≥50% = +++)”.

“56 (LLDSTAHLL; peptide displayed by HLA-A*02) [compound 56]”: the Peptide exchange result is “++++ (≥75% = ++++)”. The result for “86 (NLADNTILV; peptide displayed by HLA-A*02) [compound 86]” reads “++++ (≥75% = ++++)”; that for “102 (WLIDKSMEL; peptide displayed by HLA-A*02) [compound 102]”, “++++ (≥75% = ++++)”. As for “39 (AVFDQTVTVI; peptide displayed by HLA-A*02) [compound 39]”, the Peptide exchange entry is on record as “+++ (≥50% = +++)”. As for “32 (ALADLTGTVVNL; peptide displayed by HLA-A*02) [compound 32]”, the entry is “++++ (≥75% = ++++)”; as for “77 (YLHGFDLSL; peptide displayed by HLA-A*02) [compound 77]”, “++++ (≥75% = ++++)”. As to “55 (KTWDQSIAL; peptide displayed by HLA-A*02) [compound 55]”, the Peptide exchange result is “++++ (≥75% = ++++)”.

As for “23 (FLGPIVDL; peptide displayed by HLA-A*02) [compound 23]”, the Peptide exchange entry is reported as “++++ (≥75% = ++++)”.

With “30 (QLMEKVQDV; peptide displayed by HLA-A*02) [compound 30]”, the Peptide exchange entry is listed as “+++ (≥50% = +++)”.

“21 (FLNLFDHTL; peptide displayed by HLA-A*02) [compound 21]”: the Peptide exchange entry is recorded as “++++ (≥75% = ++++)”. The result for “25 (FMNDRSFIL; peptide displayed by HLA-A*02) [compound 25]” reads “++++ (≥75% = ++++)”; that for “49 (ALDDYTITF; peptide displayed by HLA-A*02) [compound 49]”, “++++ (≥75% = ++++)”; that for “82 (FLNPDGSDCTL; peptide displayed by HLA-A*02) [compound 82]”, “++++ (≥75% = ++++)”.

As for “59 (SQTDLSPAL; peptide displayed by HLA-A*02) [compound 59]”, the Peptide exchange entry is “++++ (≥75% = ++++)”. As for “78 (AIDQTITEA; peptide displayed by HLA-A*02) [compound 78]”, the entry is “+++ (≥50% = +++)”; as for “26 (ILYDGSNIQL; peptide displayed by HLA-A*02) [compound 26]”, “++++ (≥75% = ++++)”.

As to “22 (HMIDLTIHL; peptide displayed by HLA-A*02) [compound 22]”, the Peptide exchange result is recorded as “+++ (≥50% = +++)”. Consider “43 (KLLNDLTSI; peptide displayed by HLA-A*02) [compound 43]”, for which the Peptide exchange entry is “++++ (≥75% = ++++)”. As for “99 (NLLDHSSMFL; peptide displayed by HLA-A*02) [compound 99]”, the entry is “++++ (≥75% = ++++)”; as for “48 (AIYHDITGISV; peptide displayed by HLA-A*02) [compound 48]”, “+++ (≥50% = +++)”. As for “28 (FLLDGTDMFHM; peptide displayed by HLA-A*02) [compound 28]”, the entry is “+++ (≥50% = +++)”; as for “90 (VLDGTEVNL; peptide displayed by HLA-A*02) [compound 90]”, “++++ (≥75% = ++++)”; as for “2 (RLLEGDFSL; peptide displayed by HLA-A*02) [compound 2]”, “++++ (≥75% = ++++)”.

In the case of “5 (ALPQFFNDV; peptide displayed by HLA-A*02) [compound 5]”, the Peptide exchange entry is “++++ (≥75% = ++++)”.

For “50 (ALYDSTRELL; peptide displayed by HLA-A*02) [compound 50]”, the Peptide exchange entry is given as “++++ (≥75% = ++++)”.

In the case of “54 (KLEERVYDV; peptide displayed by HLA-A*02) [compound 54]”, the Peptide exchange result was “++++ (≥75% = ++++)”.

On to “40 (FLDQTDETL; peptide displayed by HLA-A*02) [compound 40]”, for which the Peptide exchange result was “+++ (≥50% = +++)”.

For the substance “93 (YLDGTFRLL; peptide displayed by HLA-A*02) [compound 93]”, the Peptide exchange entry was “+++ (≥50% = +++)”.

As for “71 (YLGAVFDL; peptide displayed by HLA-A*02) [compound 71]”, the Peptide exchange result is “++++ (≥75% = ++++)”. As for “70 (SMASFLKDV; peptide displayed by HLA-A*02) [compound 70]”, the entry is “++++ (≥75% = ++++)”; as for “74 (KILDFTGPLFL; peptide displayed by HLA-A*02) [compound 74]”, “++++ (≥75% = ++++)”. As for “66 (LLDDQTVTF; peptide displayed by HLA-A*02) [compound 66]”, the entry is “+++ (≥50% = +++)”; as for “1 (ILDSTTIEI; peptide displayed by HLA-A*02) [compound 1]”, “++++ (≥75% = ++++)”; as for “20 (SLFAYPLPDV; peptide displayed by HLA-A*02) [compound 20]”, “++++ (≥75% = ++++)”. With “45 (SLFDDSFSL; peptide displayed by HLA-A*02) [compound 45]”, the Peptide exchange result is given as “++++ (≥75% = ++++)”.

On to “38 (AVDGTDARL; peptide displayed by HLA-A*02) [compound 38]”, for which the Peptide exchange result is listed as “+++ (≥50% = +++)”.

As to “51 (HLCNHDVSL; peptide displayed by HLA-A*02) [compound 51]”, the Peptide exchange result is recorded as “++++ (≥75% = ++++)”.

Take “84 (KMLDETVLV; peptide displayed by HLA-A*02) [compound 84]”: the Peptide exchange result is recorded as “+++ (≥50% = +++)”. In the case of “75 (KLHDTSFCL; peptide displayed by HLA-A*02) [compound 75]”, the Peptide exchange result is “++++ (≥75% = ++++)”. In the case of “9 (SLDDSLNEL; peptide displayed by HLA-A*02) [compound 9]”, the Peptide exchange result is on record as “+++ (≥50% = +++)”. The result for “62 (FLKDVTAQI; peptide displayed by HLA-A*02) [compound 62]” reads “++++ (≥75% = ++++)”; that for “60 (TLDITIVNL; peptide displayed by HLA-A*02) [compound 60]”, “++++ (≥75% = ++++)”. The result for “89 (SLFIDVTRV; peptide displayed by HLA-A*02) [compound 89]” reads “++++ (≥75% = ++++)”.

Values taken from patent US11969464B2, “Amidated peptides and their deamidated counterparts displayed by HLA-A*02 for use in immunotherapy against different types of cancers” (Immatics Biotechnologies GmbH, priority 2020, dated 2024).
